# B1: Golgi SNAP receptor complex member 2 (Homo sapiens), O14653 (parent)
# chain: MDPLFQQTHKQVHEIQSCMGRLETADKQSVHIVENEIQASIDQIFSRLERLEILSSKEPPNKRQNARLRVDQLKYDVQHLQTALRNFQHRRHAREQQERQREELLSRTFTTNDSDTTIPMDESLQFNSSLQKVHNGMDDLILDGHNILDGLRTQRLTLKGTQKKILDIANMLGLSNTVMRLIEKRAFQDKYFMIGGMLLTCVVMFLVVQYLT
# B2: Catenin alpha-3 (Homo sapiens), Q9UI47-2 (parent)
# chain: MSAETPITLNIDPQDLQVQTFTVEKLLEPLIIQVTTLVNCPQNPSSRKKGRSKRASVLLASVEEATWNLLDKGEKIAQEATVLKDELTASLEEVRKESEALKVSAERFTDDPCFLPKREAVVQAARALLAAVTRLLILADMIDVMCLLQHVSAFQRTFESLKNVANKSDLQKTYQKLGKELENLDYLAFKRQQDLKSPNQRDEIAGARASLKENSPLLHSICSACLEHSDVASLKASKDTVCEEIQNALNVISNASQGIQNMTTPPEPQAATLGSALDELENLIVLNPLTVTEEEIRPSLEKRLEAIISGAALLADSSCTRDLHRERIIAECNAIRQALQDLLSEYMNNAGKKERSNTLNIALDNMCKKTRDLRRQLRKAIIDHVSDSFLDTTVPLLVLIEAAKNGREKEIKEYAAIFHEHTSRLVEVANLACSMSTNEDGIKIVKIAANHLETLCPQIINAALALAARPKSQAVKNTMEMYKRTWENHIHVLTEAVDDITSIDDFLAVSGMFLFF
# B3: Succinate--CoA ligase [ADP-forming] subunit beta, mitochondrial (Homo sapiens), Q9P2R7 (parent)
# chain: MAASMFYGRLVAVATLRNHRPRTAQRAAAQVLGSSGLFNNHGLQVQQQQQRNLSLHEYMSMELLQEAGVSVPKGYVAKSPDEAYAIAKKLGSKDVVIKAQVLAGGRGKGTFESGLKGGVKIVFSPEEAKAVSSQMIGKKLFTKQTGEKGRICNQVLVCERKYPRREYYFAITMERSFQGPVLIGSSHGGVNIEDVAAESPEAIIKEPIDIEEGIKKEQALQLAQKMGFPPNIVESAAENMVKLYSLFLKYDATMIEINPMVEDSDGAVLCMDAKINFDSNSAYRQKKIFDLQDWTQEDERDKDAAKANLNYIGLDGNIGCLVNGAGLAMATMDIIKLHGGTPANFLDVGGGATVHQVTEAFKLITSDKKVLAILVNIFGGIMRCDVIAQGIVMAVKDLEIKIPVVVRLQGTRVDDAKALIADSGLKILACDDLDEAARMVVKLSEIVTLAKQAHVDVKFQLPI
# partner: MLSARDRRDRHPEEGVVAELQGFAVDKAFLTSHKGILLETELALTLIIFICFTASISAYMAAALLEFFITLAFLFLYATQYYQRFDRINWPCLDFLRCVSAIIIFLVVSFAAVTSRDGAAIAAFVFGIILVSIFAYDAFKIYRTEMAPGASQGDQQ
# Variants of: B1
# Settings: with stx4_human STX4, Q12846
# Chain of stx4_human STX4, Q12846 (Q12846 whole entry): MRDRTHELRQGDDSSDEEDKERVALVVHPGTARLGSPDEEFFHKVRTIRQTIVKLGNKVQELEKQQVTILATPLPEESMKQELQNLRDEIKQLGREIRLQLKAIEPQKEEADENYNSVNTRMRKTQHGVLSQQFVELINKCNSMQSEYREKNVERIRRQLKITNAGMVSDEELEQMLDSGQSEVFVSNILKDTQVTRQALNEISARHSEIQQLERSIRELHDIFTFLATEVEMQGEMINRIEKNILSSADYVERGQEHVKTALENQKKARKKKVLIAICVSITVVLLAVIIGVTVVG
row,Variant,effect of a mutation on the interaction
1,G144W,with no effect

# Variants of: B1
# Settings: with stx1a_human STX1A
row,Variant,effect of a mutation on the interaction
1,G144W,with no effect

# Variants of: B1
# Settings: with retr3_human RETREG3, Q86VR2
# Chain of retr3_human RETREG3, Q86VR2 (Q86VR2 whole entry): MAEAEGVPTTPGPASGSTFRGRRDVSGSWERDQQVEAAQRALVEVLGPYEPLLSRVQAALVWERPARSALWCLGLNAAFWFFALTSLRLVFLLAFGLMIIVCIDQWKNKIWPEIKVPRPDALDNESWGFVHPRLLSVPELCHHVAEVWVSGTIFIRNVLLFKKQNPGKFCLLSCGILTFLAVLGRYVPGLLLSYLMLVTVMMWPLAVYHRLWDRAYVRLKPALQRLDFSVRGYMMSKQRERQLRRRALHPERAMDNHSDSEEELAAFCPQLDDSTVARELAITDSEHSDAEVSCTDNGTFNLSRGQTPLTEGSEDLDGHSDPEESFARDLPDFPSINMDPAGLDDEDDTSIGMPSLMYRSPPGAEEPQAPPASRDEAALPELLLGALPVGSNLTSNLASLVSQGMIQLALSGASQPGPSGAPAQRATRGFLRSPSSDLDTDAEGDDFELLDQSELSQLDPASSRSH
row,Variant,effect of a mutation on the interaction
1,G144W,with no effect

# Variants of: B1
# Settings: with tm205_human TMEM205, Q6UW68
row,Variant,effect of a mutation on the interaction
1,G144W,with no effect

# Variants of: B1
# Settings: with ebp_human EBP
row,Variant,effect of a mutation on the interaction
1,G144W,with no effect

# Variants of: B1
# Settings: with gp152_human GPR152, Q8TDT2
# Chain of gp152_human GPR152, Q8TDT2 (Q8TDT2 whole entry): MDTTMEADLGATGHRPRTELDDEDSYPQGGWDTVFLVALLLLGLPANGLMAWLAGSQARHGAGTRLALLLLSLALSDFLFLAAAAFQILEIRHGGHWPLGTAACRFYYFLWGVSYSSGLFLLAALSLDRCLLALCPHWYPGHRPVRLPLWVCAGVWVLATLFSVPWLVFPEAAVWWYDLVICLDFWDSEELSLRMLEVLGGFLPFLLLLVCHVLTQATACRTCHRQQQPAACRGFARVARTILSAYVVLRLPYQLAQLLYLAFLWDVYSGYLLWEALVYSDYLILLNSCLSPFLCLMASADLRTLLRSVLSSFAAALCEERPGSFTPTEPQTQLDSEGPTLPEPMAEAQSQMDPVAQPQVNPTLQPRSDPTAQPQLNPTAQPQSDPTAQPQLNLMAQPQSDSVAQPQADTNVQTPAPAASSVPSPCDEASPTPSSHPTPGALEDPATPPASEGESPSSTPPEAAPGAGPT
row,Variant,effect of a mutation on the interaction
1,G144W,with no effect

# Variants of: B1
# Settings: with ar13b_human ARL13B
row,Variant,effect of a mutation on the interaction
1,G144W,disrupting interaction strength

# Variants of: B2
# Settings: with katl1_human KATNAL1, Q9BW62
# Chain of katl1_human KATNAL1, Q9BW62 (Q9BW62 whole entry): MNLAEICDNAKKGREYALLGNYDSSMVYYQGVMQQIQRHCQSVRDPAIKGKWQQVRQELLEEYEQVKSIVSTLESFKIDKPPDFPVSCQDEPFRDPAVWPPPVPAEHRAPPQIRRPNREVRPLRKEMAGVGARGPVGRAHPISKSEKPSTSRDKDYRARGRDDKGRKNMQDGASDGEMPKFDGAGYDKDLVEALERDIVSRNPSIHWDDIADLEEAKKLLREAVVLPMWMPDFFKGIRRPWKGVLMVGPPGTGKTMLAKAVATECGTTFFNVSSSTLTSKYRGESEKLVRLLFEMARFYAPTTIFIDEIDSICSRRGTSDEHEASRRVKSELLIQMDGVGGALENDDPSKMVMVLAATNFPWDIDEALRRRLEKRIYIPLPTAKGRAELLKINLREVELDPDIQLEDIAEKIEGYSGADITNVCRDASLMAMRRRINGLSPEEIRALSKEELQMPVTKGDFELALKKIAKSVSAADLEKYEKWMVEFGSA
row,Variant,effect of a mutation on the interaction
1,V94D,disrupting interaction strength

# Variants of: B2
# Settings: with pax6_human PAX6, P26367
row,Variant,effect of a mutation on the interaction
1,V94D,with no effect

# Variants of: B2
# Settings: with taso2_human TASOR2, Q5VWN6
# Chain of taso2_human TASOR2, Q5VWN6 (Q5VWN6 whole entry): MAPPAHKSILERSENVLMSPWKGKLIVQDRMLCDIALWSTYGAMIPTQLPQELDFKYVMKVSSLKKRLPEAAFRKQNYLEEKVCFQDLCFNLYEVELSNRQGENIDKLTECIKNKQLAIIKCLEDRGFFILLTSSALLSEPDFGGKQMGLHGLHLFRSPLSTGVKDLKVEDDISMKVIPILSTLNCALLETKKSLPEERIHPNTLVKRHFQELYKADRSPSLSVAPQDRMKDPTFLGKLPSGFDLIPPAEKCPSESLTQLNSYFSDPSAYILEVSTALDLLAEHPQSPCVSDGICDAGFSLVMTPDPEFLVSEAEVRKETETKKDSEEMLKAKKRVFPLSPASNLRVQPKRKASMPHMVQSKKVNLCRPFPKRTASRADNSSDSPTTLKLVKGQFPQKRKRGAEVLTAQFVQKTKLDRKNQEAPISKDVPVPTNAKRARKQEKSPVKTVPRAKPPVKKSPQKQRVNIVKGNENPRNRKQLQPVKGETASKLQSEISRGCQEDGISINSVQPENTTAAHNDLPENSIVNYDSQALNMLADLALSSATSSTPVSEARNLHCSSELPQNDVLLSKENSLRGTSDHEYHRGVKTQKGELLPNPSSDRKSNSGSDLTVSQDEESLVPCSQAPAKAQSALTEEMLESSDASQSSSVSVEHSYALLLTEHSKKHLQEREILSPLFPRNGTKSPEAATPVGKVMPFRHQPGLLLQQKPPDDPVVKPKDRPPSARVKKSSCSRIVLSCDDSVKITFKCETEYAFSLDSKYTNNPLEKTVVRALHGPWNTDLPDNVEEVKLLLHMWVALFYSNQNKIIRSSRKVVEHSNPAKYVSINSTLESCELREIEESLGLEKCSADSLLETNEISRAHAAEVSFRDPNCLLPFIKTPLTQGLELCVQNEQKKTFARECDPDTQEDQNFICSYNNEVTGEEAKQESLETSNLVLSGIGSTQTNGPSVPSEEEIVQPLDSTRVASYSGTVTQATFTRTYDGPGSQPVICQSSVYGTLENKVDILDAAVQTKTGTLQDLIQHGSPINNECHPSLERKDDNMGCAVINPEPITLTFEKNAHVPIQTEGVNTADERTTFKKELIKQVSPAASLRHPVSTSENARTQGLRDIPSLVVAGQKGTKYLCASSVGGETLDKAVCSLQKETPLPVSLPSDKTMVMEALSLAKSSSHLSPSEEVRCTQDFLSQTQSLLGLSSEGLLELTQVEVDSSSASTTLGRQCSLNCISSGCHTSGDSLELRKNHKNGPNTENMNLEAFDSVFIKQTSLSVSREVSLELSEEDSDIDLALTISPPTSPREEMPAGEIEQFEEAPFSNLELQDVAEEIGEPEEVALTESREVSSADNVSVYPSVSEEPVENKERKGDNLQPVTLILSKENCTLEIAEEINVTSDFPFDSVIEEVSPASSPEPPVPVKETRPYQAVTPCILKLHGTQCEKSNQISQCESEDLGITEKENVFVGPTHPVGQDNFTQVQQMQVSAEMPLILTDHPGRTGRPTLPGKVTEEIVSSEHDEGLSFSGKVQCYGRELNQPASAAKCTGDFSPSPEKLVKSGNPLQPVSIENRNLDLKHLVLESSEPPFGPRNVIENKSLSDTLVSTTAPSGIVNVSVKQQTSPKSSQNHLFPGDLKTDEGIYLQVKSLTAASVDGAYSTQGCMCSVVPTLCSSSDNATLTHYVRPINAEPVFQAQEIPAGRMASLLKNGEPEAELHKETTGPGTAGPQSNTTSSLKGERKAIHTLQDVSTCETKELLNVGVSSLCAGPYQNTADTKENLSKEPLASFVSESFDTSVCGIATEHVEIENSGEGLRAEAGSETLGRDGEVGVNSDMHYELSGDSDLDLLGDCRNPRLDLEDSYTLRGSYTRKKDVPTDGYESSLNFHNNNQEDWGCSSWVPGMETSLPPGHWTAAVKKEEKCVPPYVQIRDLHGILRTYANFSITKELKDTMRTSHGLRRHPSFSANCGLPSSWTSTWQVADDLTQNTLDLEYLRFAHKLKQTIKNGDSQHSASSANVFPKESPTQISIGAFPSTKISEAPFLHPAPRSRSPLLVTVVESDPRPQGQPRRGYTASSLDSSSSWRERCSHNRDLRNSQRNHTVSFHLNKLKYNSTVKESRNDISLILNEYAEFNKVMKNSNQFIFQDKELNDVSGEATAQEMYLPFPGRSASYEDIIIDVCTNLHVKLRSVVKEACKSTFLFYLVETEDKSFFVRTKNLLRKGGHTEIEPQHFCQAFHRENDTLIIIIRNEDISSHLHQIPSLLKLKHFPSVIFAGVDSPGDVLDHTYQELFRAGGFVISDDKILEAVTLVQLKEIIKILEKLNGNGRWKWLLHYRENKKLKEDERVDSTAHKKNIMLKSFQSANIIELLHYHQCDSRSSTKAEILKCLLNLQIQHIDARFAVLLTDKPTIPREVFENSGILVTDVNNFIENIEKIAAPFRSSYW
row,Variant,effect of a mutation on the interaction
1,V94D,with no effect

# Variants of: B2
# Settings: with pnma5_human PNMA5, Q96PV4
row,Variant,effect of a mutation on the interaction
1,V94D,with no effect

# Variants of: B2
# Settings: with ms18b_human OIP5, O43482
# Chain of ms18b_human OIP5, O43482 (O43482 whole entry): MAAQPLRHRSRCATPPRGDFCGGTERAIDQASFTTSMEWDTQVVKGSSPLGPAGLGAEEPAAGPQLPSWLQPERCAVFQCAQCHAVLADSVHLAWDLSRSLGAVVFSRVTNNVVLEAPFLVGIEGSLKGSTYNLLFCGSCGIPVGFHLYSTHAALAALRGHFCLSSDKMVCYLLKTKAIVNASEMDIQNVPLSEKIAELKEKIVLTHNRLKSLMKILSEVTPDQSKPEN
row,Variant,effect of a mutation on the interaction
1,V94D,disrupting interaction strength

# Variants of: B2
# Settings: with cq050_human C17orf50, Q8WW18
row,Variant,effect of a mutation on the interaction
1,V94D,disrupting interaction strength

# Variants of: B2
# Settings: with mb3l1_human MBD3L1, Q8WWY6
# Chain of mb3l1_human MBD3L1, Q8WWY6 (Q8WWY6 whole entry): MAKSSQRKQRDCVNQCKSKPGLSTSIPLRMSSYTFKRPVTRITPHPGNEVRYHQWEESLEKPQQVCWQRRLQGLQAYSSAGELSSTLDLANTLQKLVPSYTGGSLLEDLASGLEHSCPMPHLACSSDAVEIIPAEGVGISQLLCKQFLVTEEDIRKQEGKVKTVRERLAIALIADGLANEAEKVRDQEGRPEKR
row,Variant,effect of a mutation on the interaction
1,V94D,with no effect

# Variants of: B2
# Settings: with PRR5, P85299-2
row,Variant,effect of a mutation on the interaction
1,V94D,disrupting interaction strength

# Variants of: B2
# Settings: with cenps_human CENPS
row,Variant,effect of a mutation on the interaction
1,V94D,disrupting interaction strength

# Variants of: B2
# Settings: with zn552_human ZNF552, Q9H707
# Chain of zn552_human ZNF552, Q9H707 (Q9H707 whole entry): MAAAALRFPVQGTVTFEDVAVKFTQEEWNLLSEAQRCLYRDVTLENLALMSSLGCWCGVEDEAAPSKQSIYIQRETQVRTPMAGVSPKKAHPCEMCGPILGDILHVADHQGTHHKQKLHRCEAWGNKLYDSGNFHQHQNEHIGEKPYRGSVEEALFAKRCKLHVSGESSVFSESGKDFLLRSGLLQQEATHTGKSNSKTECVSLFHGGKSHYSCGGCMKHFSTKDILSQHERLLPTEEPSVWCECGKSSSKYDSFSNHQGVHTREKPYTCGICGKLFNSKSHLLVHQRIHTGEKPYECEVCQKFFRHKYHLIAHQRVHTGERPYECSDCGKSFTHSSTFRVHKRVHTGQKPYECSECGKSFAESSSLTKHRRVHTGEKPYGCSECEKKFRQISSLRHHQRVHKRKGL
row,Variant,effect of a mutation on the interaction
1,V94D,disrupting interaction strength

# Variants of: B3
# Settings: with CMTM5, Q96DZ9-2
row,Variant,effect of a mutation on the interaction
1,D251N,disrupting interaction strength
2,G118R,disrupting interaction strength

# Reference: IntAct's records for PubMed 32296183
